The source of these data is patent US20110213019, “Compositions and Methods for Treating Cancer, Inhibiting Proliferation, and Inducing Cell Death” (UNIVERSITY OF LOUISVILLE RESEARCH FOUNDATION, INC., published 2011).

Data set [1] concerns the target alpha-enolase (UniProt P06733 P06733:2-434). Description: EMSA; strong binding; supershifted by alpha-enolase polyclonal antibody. The note with it: parallel G4. From the text:
(§1) EMSAs were used to characterize the binding of α-enolase and MBP-1 to the c-myc quadruplex-forming sequence. […] The quadruplex oligonucleotide aptamer, GRO29A, competed for α-enolase and MBP-1 binding to PU27. […] A mutation in the PU27 sequence, which prevents quadruplex formation, abrogated binding of both α-enolase and MBP-1. MBP-1 also binds to a downstream site in the P2 promoter.
For orientation: A gel shift assay detects complexes by their altered migration in electrophoresis.

Data set [2] addresses MBP-1 (alternative translation product of alpha-enolase) (UniProt P06733-2 P06733-2:1-341). The description is as above. Conditions: parallel G4.
Text: as §1

Chain of MBP-1 (alternative translation product of alpha-enolase) (P06733 94-434, one chain of several): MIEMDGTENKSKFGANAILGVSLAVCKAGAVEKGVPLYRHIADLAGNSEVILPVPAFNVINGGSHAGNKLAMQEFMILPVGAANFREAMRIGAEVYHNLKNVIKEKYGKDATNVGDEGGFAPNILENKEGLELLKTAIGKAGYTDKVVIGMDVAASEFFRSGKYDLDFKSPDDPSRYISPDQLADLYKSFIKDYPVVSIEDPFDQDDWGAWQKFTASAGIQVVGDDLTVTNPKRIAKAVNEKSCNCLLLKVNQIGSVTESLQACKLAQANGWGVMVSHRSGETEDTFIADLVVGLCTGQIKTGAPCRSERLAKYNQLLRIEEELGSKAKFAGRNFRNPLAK
Chain of alpha-enolase (P06733 2-434, one chain of several): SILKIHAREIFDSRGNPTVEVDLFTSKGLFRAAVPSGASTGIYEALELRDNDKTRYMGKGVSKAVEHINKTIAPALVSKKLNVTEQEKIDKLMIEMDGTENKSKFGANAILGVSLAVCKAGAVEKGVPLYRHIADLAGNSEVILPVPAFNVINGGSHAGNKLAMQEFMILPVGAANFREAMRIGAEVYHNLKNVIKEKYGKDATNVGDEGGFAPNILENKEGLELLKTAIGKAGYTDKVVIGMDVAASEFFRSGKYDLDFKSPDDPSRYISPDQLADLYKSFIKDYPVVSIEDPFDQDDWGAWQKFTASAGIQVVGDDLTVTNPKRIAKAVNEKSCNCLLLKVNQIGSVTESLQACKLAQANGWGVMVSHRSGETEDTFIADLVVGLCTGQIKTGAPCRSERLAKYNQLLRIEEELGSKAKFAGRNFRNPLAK

B1: PU27 (c-Myc promoter quadruplex) (structured_DNA)
DNA: TGGGGAGGGTGGGGAGGGTGGGGAAGG
Consider B1, for which the binding result in data set [1] and in data set [2] was “binds” throughout.
